Laboratory results from patent US20260193326A1 (published 2026).

What was measured:
AAV8 [1] = target: T1, AAV8 (adeno-associated virus serotype 8); assay: SPR, AAV on CM5 chip;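 further: surface plasmon resonance with AAV amine-coupled to the chip as ligand, nanobodies injected as analyte over a concentration series, rate constants and affinity fitted from binding curves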
T1 construct: also called adeno-associated virus serotype 8
Protocol: (§1) AAV was amine-coupled to a CM5 sensor chip at a density of 500-800 response units (RU). Nanobodies were injected at seven concentrations (1-100 nM) with a flow rate of 45 μL/min, and chip regeneration was performed using glycine-HCl (pH 1.5). Binding curves at different nanobody concentrations were used to calculate kinetic parameters (Kₐ, Kd, KD) (Table 2 and FIG. 2).

AAV9 [2] = target: T2, AAV9 (adeno-associated virus serotype 9); assay: SPR, AAV on CM5 chip;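 further: surface plasmon resonance with AAV amine-coupled to the chip as ligand, nanobodies injected as analyte over a concentration series, rate constants and affinity fitted from binding curves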
T2 construct: also called adeno-associated virus serotype 9
Protocol: as §1

AAV5 [3] = target: T3, AAV5 (adeno-associated virus serotype 5); assay: SPR, AAV on CM5 chip;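 further: surface plasmon resonance with AAV amine-coupled to the chip as ligand, nanobodies injected as analyte over a concentration series, rate constants and affinity fitted from binding curves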
T3 construct: also called adeno-associated virus serotype 5
Protocol: as §1

AAV2 [4] = target: T4, AAV2 (adeno-associated virus 2, UniProt P03135 1-735); assay: SPR, AAV amine-coupled to CM5 chip;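 further: nanobodies flowed as analyte at seven concentrations spanning 1–100 nM over immobilized AAV (500–800 RU), kinetic constants derived by fitting the binding curves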
T4 construct: also called adeno-associated virus serotype 2
Protocol: as §1

AAV5 [5] = target: T5, AAV5 (adeno-associated virus 5); assay: SPR, AAV amine-coupled to CM5 chip;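 further: nanobodies flowed as analyte at seven concentrations spanning 1–100 nM over immobilized AAV (500–800 RU), kinetic constants derived by fitting the binding curves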
T5 construct: also called adeno-associated virus serotype 5
Protocol: as §1

AAV9 [6] = target: T6, AAV9 (adeno-associated virus 9); assay: SPR, AAV amine-coupled to CM5 chip;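 further: nanobodies flowed as analyte at seven concentrations spanning 1–100 nM over immobilized AAV (500–800 RU), kinetic constants derived by fitting the binding curves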
T6 construct: also called adeno-associated virus serotype 9
Protocol: as §1

AAV8 [7] = target: T7, AAV8 (adeno-associated virus 8); assay: SPR, AAV amine-coupled to CM5 chip;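 further: nanobodies flowed as analyte at seven concentrations spanning 1–100 nM over immobilized AAV (500–800 RU), kinetic constants derived by fitting the binding curves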
T7 construct: also called adeno-associated virus serotype 8
Protocol: as §1

AAV5 [8] = target: T8, AAV5; assay: SPR, AAV on CM5 chip;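 further: surface plasmon resonance with AAV amine-coupled to the chip as ligand, nanobodies injected as analyte over a concentration series, rate constants and affinity fitted from binding curves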
T8 construct: also called adeno-associated virus serotype 5
Protocol: as §1

AAV8 [9] = target: T9, AAV8; assay: SPR, AAV on CM5 chip
T9 construct: also called adeno-associated virus serotype 8
Protocol: as §1

AAV9 [10] = target: T10, AAV9; assay: SPR, AAV on CM5 chip
T10 construct: also called adeno-associated virus serotype 9
Protocol: as §1

AAV2 [11] = target: T11, AAV2 (UniProt P03135 1-735); assay: SPR, AAV on CM5 chip
T11 construct: also called adeno-associated virus serotype 2
Protocol: as §1

Binder | Kd (AAV8 [1]) [nM] | koff (AAV8 [1]) [s⁻¹] | kon (AAV8 [1]) [M⁻¹ s⁻¹] | Kd (AAV9 [2]) [nM] | koff (AAV9 [2]) [s⁻¹] | kon (AAV9 [2]) [M⁻¹ s⁻¹] | Kd (AAV5 [3]) [nM] | koff (AAV5 [3]) [s⁻¹] | kon (AAV5 [3]) [M⁻¹ s⁻¹] | Kd (AAV2 [4]) [nM] | koff (AAV2 [4]) [s⁻¹] | kon (AAV2 [4]) [M⁻¹ s⁻¹] | Kd (AAV5 [5]) [nM] | koff (AAV5 [5]) [s⁻¹] | kon (AAV5 [5]) [M⁻¹ s⁻¹] | Kd (AAV9 [6]) [nM] | koff (AAV9 [6]) [s⁻¹] | kon (AAV9 [6]) [M⁻¹ s⁻¹] | Kd (AAV8 [7]) [nM] | koff (AAV8 [7]) [s⁻¹] | also measured
A4-112 (VHH) VHH: VQLQESGGGLVQTGGSLRLSCIASGSIFSINTVGWYRQAPPKQRELVATVTRAGSTWYAGSVKGRFTISRDNAKNTIYLQMNTLRPEDTAVYYCHVDEVRQSTWTTSNIWGQGTQVTVSS | 1.11 | 0.00021 | 188000 | 36.6 | 0.0052 | 142000 | 31.6 | 0.00412 | 130000 |  |  |  |  |  |  |  |  |  |  |  | 
A4-113 (VHH) VHH: VQLQESGGGLVQTGGSLRLSCVASGSRFSINTVGWYRQAPGKQRELVATVTRGGSTWYAGSVKGRFTISRDNTKNTIYLQMNSLRPEDTAVYYCHVDEIRQSTWTTSNLWGQGTQVTVSS | 3.25 | 2e-05 | 6150 | 52.5 | 0.00051 | 9720 | 218 | 0.00145 | 6660 |  |  |  |  |  |  |  |  |  |  |  | 
A4-088 (VHH) VHH: VQLQESGGGLVQTGGSLRLSCAASGSRFSLNTMGWYRQAPGKQRELVAAVTRGGNTNYGDFVKGRFTISRDNAKNTVYLQMNSLRPEDTAVYYCHVDELRESSWTTSNLWGQGTQVTVSS |  |  |  |  |  |  |  |  |  | 2420 | 0.00993 | 4100 | 201 | 0.00146 | 7260 | 234 | 0.00177 | 7570 | 538 | 0.00454 | kon (AAV8 [7]): 8440 M⁻¹ s⁻¹
A4-103 (VHH) VHH: VQLQESGGGLVQPGGSLRLSCAASGSIFSLNAMGWYRQAPGKQRELVATITRGGSTNYADSVKGRFTISRDNAKNTVYLQMNSLRPEDTAVYYCHVDEVRESIWTTSNLWGQGTQVTVSS | 35.1 | 0.00182 | 51900 | 81.2 | 0.00107 | 13200 | 26.9 | 0.00137 | 51000 |  |  |  |  |  |  |  |  |  |  |  | 
A4-106 (VHH) VHH: VQLQESGGGLVQPGGSLRLSCIASGSIFSLNAMGWYRQAPGKQRELVATITSGGSTNYADSVKGRFTISRDNAKNTAYLQMNNLQPEDTAVYYCHVDEVRESIWTTSNLWGQGTQVTVSS | 16 | 0.00191 | 120000 | 1.65 | 0.00011 | 66600 | 2.12 | 0.00042 | 198000 |  |  |  |  |  |  |  |  |  |  |  | 
A4-102 (VHH) VHH: VQLQESGGGLVQPGGSLRLSCAASGSHFTINSVGWYRQAPGKQRELVAPVTRGGTTNYADFVKGRFTISRDNAKNTVYLQMNSLRPEDTAVYYCHVDELRDSSWTTSNLWGQGTQVTVSS | 7.86 | 0.0006 | 76300 | 30.8 | 0.00465 | 151000 | 40.4 | 0.007 | 173000 |  |  |  |  |  |  |  |  |  |  |  | 
A4-092 (VHH) VHH: VQLQESGGGLVQTGGSLRLSCLASGSIFSINTMGWYRQRAGKQRELVATVTRAGSTNYADSVKGRFTISRDNAKNTVYLQMNSLRPEDTAVYYCHVDEIRESSWTTSNLWGQGTQVTVSS |  |  |  |  |  |  |  |  |  | 1.09 | 6e-05 | 55100 | 0.194 | 1e-05 | 51600 | 1.06 | 9e-05 | 84900 | 0.106 | 2e-05 | kon (AAV8 [7]): 188000 M⁻¹ s⁻¹
A4-110 (VHH) VHH: VQLQESGGGLVQPGGSLRLSCFASGTNFSINVVGWYRQAPGKQRELVATITRGGSTNYAESVKGRFTISRDNAKNTVYLQMNNLRPEDTAVYYCHLDEVRDSSWTTSNLWGQGTQVTVSS | 860 | 0.00596 | 6930 | 347 | 0.0014 | 4040 | 37.8 | 0.00035 | 9270 |  |  |  |  |  |  |  |  |  |  |  | 
A4-104 (VHH) VHH: VQLQESGGGLVQPGGSLRLSCAASGSIFSLNSMGWYRQAPGKQRELVATITSGGSTNYAGSVKGRFTISRDNAKNTVYLQMNNLQPEDTAVYYCHVDEVRESSWTTSNLWGQGTQVTVSS | 10.5 | 3e-05 | 2860 | 451 | 0.00093 | 2060 | 44 | 0.00037 | 8420 |  |  |  |  |  |  |  |  |  |  |  | 
A4-107 (VHH) VHH: VQLQESGGGLVQPGGSLRLSCIASGSGFSINTVGWYRQAPAKQRELVATLTRGGSTNYADSVKGRFTISRDNPKNTVYLQMNSLRPEDTAVYYCHVDEVRQSSWTTSNIWGQGTQVTVSS | 848 | 0.00101 | 1190 | 1680 | 0.00356 | 2120 | 703 | 0.00353 | 5020 |  |  |  |  |  |  |  |  |  |  |  | 
A4-090 (VHH) VHH: VQLQESGGGLVQPGGSLRLSCVASGSRFIINTMGWYRQAPGKQRELVATFTRGGNTNYAESVKGRFTISRDNGKSTVYLQMNSLRPEDTAVYYCHVDEVRESTWTTSNLWGQGTQVTVSS |  |  |  |  |  |  |  |  |  | 6.83 | 0.00136 | 199000 | 121 | 0.00186 | 15300 | 24.9 | 0.0015 | 60400 | 14.5 | 0.00109 | kon (AAV8 [7]): 75300 M⁻¹ s⁻¹
A4-093 (VHH) VHH: VQLQESGGGLVQTGGSLRLSCAASGSIFIINTMGWYRQRAGKQRELVATVTRGGSTNYADSVKGRFTISRDNAKNTVYLQMNTLRPEDTAVYYCHVDELRQSSWTTSNLWGQGTQVTVSS |  |  |  |  |  |  |  |  |  | 46 | 0.00103 | 22400 | 8.21 | 0.00114 | 139000 | 15.5 | 0.0011 | 70800 | 11.8 | 0.00196 | kon (AAV8 [7]): 166000 M⁻¹ s⁻¹
A4-101 (VHH) VHH: VQLQESGGGLVQPGGSLRLSCAASGSRFSINIMGWYRQAPGKQRELVASVTRGGTTNYADSVKGRFTISRDNPKNTIYLQMNSLRPEDTAVYYCHVDEIRESTWTTSNLWGQGTQVTVSS | 162 | 0.00129 | 7970 | 13.4 | 9e-05 | 6700 | 70.8 | 0.00034 | 4800 |  |  |  |  |  |  |  |  |  |  |  | 
A4-099 (VHH) VHH: VQLQESGGGLVQTGGSLRLSCAASGSSFSINTMGWYRQAPGKWRELVAAVTRGGDTNYAESVKGRFTISRDNGKNTVYLQMNSLRPEDTAVYYCHIDEIRESSWTTSNLWGQGTQVTVSS |  |  |  |  |  |  |  |  |  | 1.06 | 0.00021 | 197000 | 4.19 | 0.00041 | 98000 | 0.203 | 3e-05 | 148000 | 2.57 | 0.0005 | kon (AAV8 [7]): 194000 M⁻¹ s⁻¹
A4-109 (VHH) VHH: VQLQESGGGLVQAGGSLRLSCAASGTIFSLNVMGWYRQAPGKQRELVASVTRGGNTNYADSVKGRFTISRDNAKTTVYLQMNSLRPEDTAVYYCHVDELRDSTWTTSNLWGQGTQVTVSS | 2.27 | 0.00035 | 154000 | 42.4 | 0.00071 | 16800 | 3.74 | 0.00022 | 58800 |  |  |  |  |  |  |  |  |  |  |  | 
A4-089 (VHH) VHH: VQLQESGGGLVQPGGSLRLSCAASGSNFSINTMGWYRQAPGKQRELVATFTRAGNTNYADSVKGRFTISRDNGKNTVYLQMNSLRPEDTAVYYCHVDEVRDSSWTTSNLWGQGTQVTVSS |  |  |  |  |  |  |  |  |  | 4.28 | 0.0008 | 187000 | 163 | 0.00099 | 6080 | 2.29 | 0.00041 | 179000 | 4.48 | 0.00054 | kon (AAV8 [7]): 121000 M⁻¹ s⁻¹
A4-108 (VHH) VHH: VQLQESGGGLAQPGGSLRLSCLASGSGFSINTMGWYRQAPPKWRELVATVTRGGSTNYAGSVKGRFTISRDNPKNTVYLQMNSLRPEDTAVYYCHLDEVRQSTWTTSNIWGQGTQVTVSS | 7.94 | 0.00085 | 107000 | 3.54 | 0.00061 | 172000 | 7.12 | 0.00105 | 148000 |  |  |  |  |  |  |  |  |  |  |  | 
A4-001 (VHH) VHH: VQLQESGGGLVQPGGSLRLSCAASGRSFSINTMGWYRQAPGKQRELVATVTRGGSTNYAGSVKGRFTISRDNAKNTVYLQMNSLRPEDTAVYYCHIDEVRQSSWTTSNIWGQGTQVTVSS |  |  |  |  |  |  |  |  |  |  |  |  |  |  |  |  |  |  |  |  | Kd (AAV5 [8]): 6.47 nM; koff (AAV5 [8]): 0.00098 s⁻¹; kon (AAV5 [8]): 151000 M⁻¹ s⁻¹; Kd (AAV8 [9]): 3.64 nM; koff (AAV8 [9]): 0.000669 s⁻¹; kon (AAV8 [9]): 184000 M⁻¹ s⁻¹; Kd (AAV9 [10]): 142 nM; koff (AAV9 [10]): 0.0116 s⁻¹; kon (AAV9 [10]): 81600 M⁻¹ s⁻¹; Kd (AAV2 [11]): 1.06 nM; koff (AAV2 [11]): 6.35e-05 s⁻¹; kon (AAV2 [11]): 60100 M⁻¹ s⁻¹
